Assay results from the DeepSol protein solubility set.

Assay: soluble on expression in E. coli; label from the status in PepcDB or PDB records

Sequence	soluble on expression in E. coli
MGSDKIHHHHHHMPASDVIIAGSGPAGAMLARDLTRAGASVRILERGGETPASAPNLWKLWRRKEALHVAPGVALLRGTRVGGGSTVFYHTAISPPLEMFSHHGVEMAQDLAAVLAELPHQPLQAPLLGPTAQRIIDAARSLGLPWQTLPKMIDQELCGHGDCPPAAFWSAASLLAQAMQLGAELETGIQVNRVLFQNGRAVGVEALQKGQLRRFMGGTVILSAGGVASPVILQRSGIREAGRGFFCDPLRVGVAIGRGNGLQEAEMPMTAGFVDREAGYMLTDMTVPPNFYRAFAWAAGRVDMLAHYRHSMMIMVKIRDEISGEVNANGRVWRHFSAAEKNRMRNGMGLAADILRAAGGRRIFFSPWLAAHPGGSVRLGELLDERLSCCTPNLHVCDASVIPEPWGLPPTLTVLSLAKYLGRILLG	not soluble
MENFAVIDLGSNSCRMTITQIQEDGSYAVTHRLKEMVRLSENENATDTPTLQAEAIDRTIAALKSFAAVYKDLPNLTIKAVATAATRKASNQKKFLKRVKNDVGLDIEVIPGTTEAYYDYLGVVNTLPTTNCVMVDTGGGSCELVLIVNGQAKDLISLPIGAVSLSEKFGLNDQVTASQLFKTMTFVDKIFNSVWWLRNGLNLPLVCLGGSNRTLAKINRRKCNILNFEDIHGYRLRDNAIYDTFNTVISQDAAGRAAIPGLAKDRADIIVGGMIPAISLMRFLDSDRMIFSQNGLREGILFEHLTALAEQSAKVSELEHHHHHH	not soluble
KKLLLIGAGRISYYLLNILKNNRIKVKLIEQKMDRAQTFSQVFPEVSVILGDGTAKDLLLEESAASYDAVATLTGVDEENIITSMFLESLGVHKNITKVNRTSLLEIVDTRETTTIVTPKSIAVDTVMHFVRGHYNA	not soluble
MKEIDWANLSFGYMKTDYNVRINFRNGAWGELEVSSDEHLNLHMAATCLHYGQEAFEGLKAFRGKDGKVRIFRLEENAARLQSTCQGILMAELPTERFKEAILKVVKLNERFIPPYETGASLYIRPLLIGTSAQVGVHPAEEYMFVVFVTPVGPYFKGGFSTNPYVIIREFDRAAPHGTGIYKVGGNYAASLRANKKAHDLGYSCEFYLDAKEKKYIDECGAANFFGIKDNTYITPKSSSILPSITNKSLMQLAEDMGIKVERRPIPEEELETFEEAGACGTAAVISPIQRIDDLENGKSYVISKDGKPGPICTKLYNKLRGIQYGDEPDTHGWVTIVE	not soluble
MSLAGQIAIVTGASRGIGRGIALQLGEAGATVYITGRKPEESLNSKVGLSGLEATADEITKRGGKGIARFVDHQNMEEVKNFFEVVEKEHQGQLDILVNNAYQGVTAISENMGKPFYETDPYVWDTINNVGLRNHYFCTVYAARLMTARNKGLIVNVSSGGGLRYLFNVAYGVGKQALDRMSADTAVELRKKNVCVVSIWPGAVRTELVDKMFKDENGKPRPEIKNAEVFANGETVEYPGRAVVSLASDPRRMDKTGRILITEDLGKEYGFVDIDGLRPPNLRSVSFILKHLGWNTTANFVPTWVKLPGWLVWAGNSRL	soluble
MSLKIPEAVNHINVQNNIDLVDGKTNPNKATKALQKNILRVTNSSSSGISEKHLDHCANTVKNFLRKSIAAQSYSKMFSQGTSFKSLNLSIEAPSGARSSFRSLEHLDKVSRHYISEIIQKVHPLSSDERHLLSIIINSNFNFRHQSNSNLSNNILNIKSFDKIQSENIQTHKNTYSEDIKEISNHDFVFFGVEISNHQEKLPLNKTHHTVDFGANAYIIDHDSPYGYMTLTDHFDNAIPPVFYHEHQSFFLDNFKEVVDEVSRYVHGNQGKTDVPIFNTKDMRLGIGLHLIDFIRKSKDQGFREFCYNKNIDPVSLDRIINFVFQLEYHIPRMLSTDNFKKIKLRDISLEDAIKASNYEEINNKVTDKKMAHQALAYSLGNKKADIALYLLSKFNFTKQDVAEMEKMNNNRYCNLYDVEYLLSKDGANYKVLEYFINNGLVDVNKKFQKANSGDTMLDNAMKSKNPKMIDFLLKNGAILGKRFEIEGHHHHHH	soluble
MKEQKISPISVLDQSPMFVSGVMQRMYRNRAQAELCRQNQMTLEMASALAALEEFQPMSQQALADAVLTERSVAKRMVDNLEKRGFVCVSKSEANQRLKMLSLTKEGEATIKKVHQIMRNLQREFFSCLSEDESAEFFRLVRKMTLANNS	not soluble
MSKSYNQRQRKKLHLAEFQELGFLVNFQFAEGTAIETVDETVDRFINEVIQPNGLAYEGSGYLHWEGLVCLEKIGKCDESHRETVKKWLETNGLQQIEVSELFDIWW	not soluble
MSISFEKLRITLKSVGVPVTRDKAEKGTDYPYIVYSNVSQGKKMASSKVHRRMPYYQISFYTTGTEKDLIALENALEEAGIPYTDFVGIQGDENDDTVTNFYTYVRCIEDGK	soluble
MGARCDVAVIGAGPAGCAAAIALKRLGVASVLLLEAGDGARPRFGESLPPDIRLILAQLGLAEAFAALGFDPCVGAASSWGEDGLGYNDFLFNPHGLGWHIDRARFDAFLRDAAVAAGAELRFDTVFDSVVMTGDAARLRVRGERGDETITAGFVLDATGRAARVARALGAERIESDRLVCAAALIRIDPDGLLGQRSLLEAVDYGWWYAARLSPDEAIVVVSTDADLLRARRLHRSDAWYGHLAATRHVAAALGTAAPPSQLMVRQARSSRLSRAADQRWRAIGDAASVYDPIMAQGVTKAMIEGLAAARDIVRHMPDAEEGLDARFADYLSLRDYFYGQEGRWPDAPFWTRRRRPQPAVRTLWEVSALEHHHHHH	not soluble
MAHHHHHHMDPNAFLSSFDAIVTLSNTEGPRHNVLEPKFTAREQMQALRESVRNAYKESPSQTAMSQICRCYVFIGFNMLETDEETEGVSEICKAYTLTLFGSKKELLDDVVDIAAHPLEEILRNEVPFVTAEKEYAFVTEFMRVHNALGFYFSNRDVELRINDAKQVLIVAEKAYRAWNDWFHQSFPGHCLMKDIPVLENGTLDRASISPDALPIYIVRFEMDTAFTSTLFFLAQVYTACKMTALASRYCHHTLYHQLLNKMEFSKKDWATNALHLSAFYSSCFDYGKALHCLRAGEYIMPEENANEETLGIVAWAFGKFYLHRLHYYSEVRRNCAPRGHFPDEFEGWWVDFPLDIPPPQPLPAIETFEDARKCFKEANVWFNKALNYYVYDGCCTEHIDIKKDIAQLYAALIPFEENRDRIIAMHQRRIALIELFPSDLNFNAYPTLVRQLLFDLGGMHEEMLEVYIQQKNSPMEGEKPLSDKKINAFADKVQGFYRRFCDTWKEPQTNKIPETIDIDSRLPFFRSLMRLAHLQMKRFFKDPKEEYDNISASIVMFEKAIAFASSNPMNEEADAEVQLAREMATLLPVRQKDLWRVYHNAV	not soluble
MKKWMAGLFLAAAVLLCLMVPQQIQGASSYDKVLYFPLSRYPETGSHIRDAIAEGHPDICTIDRDGADKRREESLKGIPTKPGYDRDEWPMAVCEEGGAGADVRYVTPSDNRGAGSWVGNQMSSYPDGTRVLFIVQLEHHHHHH	soluble
MMCISKLPAVLLILSVALNHLRATPVRSGSNPQMDKRKCNTATCATQRLANFLVRSSNNLGPVLPPTNVGSNTYGKRNAAGDPNRESLDFLLV	not soluble
MADLFPADFEPVFINIGDLELYNQDLDDEGTPTEAWTTFREEVKQVDGVMFVTPEYNRSVPAVLKNALDVGSRPYGESVWDKKPGLVVSVSPGAISGFGANHHLRQSLVFLNVPTLQQPEAYIGGITNLIGEDGKIIDGTVGFLQSIVDAYVDFFNRLTA	not soluble
MAHHHHHHMFFCPFCSTLLLVVPHVEGNALVCATCRYVHSVASASPQVPRNAFGEPILTIQHSFVAHNRQLMDAEEDPAMEAAASSSAAACHTTAAFTPVVKAETSAEGGQITTIPCQNEDNPCQSTKAYFIQIQMRSADEPATVFFKCVECGHQWRQD	not soluble
MSNQQALVIFSGGQDSTTCLIQAIQTYGRENVQAITFQYGQRHAVELERARWIAQDLGVKQTVLDLSLMRQITHNALMDDTAAIETAENGVPNTFVDGRNALFLLYAAIYAKGQGIRHIIAGVCETDFSGYPDCRDVFVKSMNVTLNLAMDYDFQIHTPLMYLTKAQTWALADEMGVLDYIREQTHTCYNGIVGGCRECPSCILRERGLAEYLESKKAV	not soluble
GPGSMDEFVYNRCSLNPIHWVLMLKGCLVDLFFSVRPINFSYSRVGMTNLAGERDQAACLREIRRAVRIIEGRKRTVATGTNKDSFQDMDSRCHTPERPLRLHLVLFGFSRGATTTFYTAMKLPPELATYVSLVVVEAAFDTLHNVIESSCWFPSFVLWFFRTFCDYSGEDAYKYDRNQIHLRCPIAFVMSVKDTRVPNELTQRLIDNVKADCPQIPAVEVLQLKHSRHPLMAVGNREDQDAYVAFMEGLYDRYCN	not soluble
MSTDIDCIVIGAGVVGLAIARALAAGGHEVLVAEAAEGIGTGTSSRNSEVIHAGIYYPADSLKARLCVRGKHLLYEYCAARGVPHQRLGKLIVATSDAEASQLDSIARRAGANGVDDLQHIDGAAARRLEPALHCTAALVSPSTGIVDSHALMLAYQGDAENDGAQLVFHTPLIAGRVRPEGGFELDFGGAEPMTLSCRVLINAAGLHAPGLARRIEGIPQDSIPPEYLCKGSYFTLAGRAPFSRLIYPVPQHAGLGVHLTLELGGQAKFGPDTEWITTEDYTLDPRRADVFYAAVRSYWPALPDGALAPGYTGIRPKISGPHEPAADFAIAGPASHGVAGLVNLYGIKSPGLTASLAIAEETLARLAALEHHHHHH	not soluble
MHHHHHHSSGVDLGTENLYFQSMDLRVQELIKLICNVQAMEEMMMEMKYNTKKAPLGKLTVAQIKAGYQSLKKIEDCIRAGQHGRALMEACNEFYTRIPHDFGLRTPPLIRTQKELSEKIQLLEALGDIEIAIKLVKTELQSPEHPLDQHYRNLHCALRPLDHESYEFKVISQYLQSTHAPTHSDYTMTLLDLFEVEKDGEKEAFREDLHNRMLLWHGSRMSNWVGILSHGLRIAHPEAPITGYMFGKGIYFADMSSKSANYCFASRLKNTGLLLLSEVALGQCNELLEANPKAEGLLQGKHSTKGLGKMAPSSAHFVTLNGSTVPLGPASDTGILNPDGYTLNYNEYIVYNPNQVRMRYLLKVQFNF	soluble
SMSRPDQAARRRAIAAELHVSPTFDARDEAERRIGFVADYLRTAGLRACVLGISGGIDSSTAGRLAQLAVERLRASGYDARFVAMRLPYGAQHDEADARRALAFVRADETLTVDVKPAADAMLAALAAGGLAYLDHAQQDFVLGNIKARERMIAQYAVAGARNGVVIGTDHAAESVMGFFTKFGDGGADVLPLAGLTKRRVRALARMLGADEPLVLKTPTADLETLRPQRPDEHAYGITYEQIDDFLEGKPMDDAVAETVLRFYDATRHKRALPYTMFDWPGHPA	soluble
MGKQCFVTGRKASTGNNRSHALNSSKRRWNANLQKVRILVDGKPKKVWVSARALKSGKVTRVLEHHHHHH	not soluble
MGSDKIHHHHHHMDLTTAQVSRLISELETRLGTKLIQRSTRQQALTDIGATYAERCRQVISMVDEAEAEVTGTASKPKGRLRVLSMGSFGHHYVFPVMAEFCKHYPELTVEYTTSQYVPDLLAKGVDVSLYLTESLTDSRFVARRIGTIFSVLCASPAYLEKHGVPKSPEDLKNHACLRLVNPSITPDWHLLNANGESYQIDIGGQLIADNPELLLDVVQQDMGVALLPMFSALDAVQNGRLCHILPEWRSPDIGVYTLLPSRHFIDAKTRAWLDWVEEYISPKIEMDASYFYK	not soluble
MSLKPNYLEERICLNVLANSVENAQACYEAAEGHVVLGVLSKNYETDEAAIDDMKKYQAATNNALSVGLGAGDPNQSQMVARLSEVLQPQHVNQVFTGVGASRALLRQDETVINGLVSPTGKVGYVNIATGPLSSGAPAAEVPIETAIKLLKDMGGSSIKYFPMKGLAHKEEYQAVAAACAKYDFYLEPTGGIDLENFEEIVQIAVDAGVKKIIPHVYSSIIDQETGDTRTEDVKTLLTMMKKTLNK	not soluble
